# Measurements reported in US20210388087A1 (Chugai, published 2021).
# Positions count from the first letter of the chain named. In names and notes the source's numbering stands.
# T1: Human CD3eg linker (human)
# T1 construct: Single-chain construct; also called recombinant human CD3
# T1 chain: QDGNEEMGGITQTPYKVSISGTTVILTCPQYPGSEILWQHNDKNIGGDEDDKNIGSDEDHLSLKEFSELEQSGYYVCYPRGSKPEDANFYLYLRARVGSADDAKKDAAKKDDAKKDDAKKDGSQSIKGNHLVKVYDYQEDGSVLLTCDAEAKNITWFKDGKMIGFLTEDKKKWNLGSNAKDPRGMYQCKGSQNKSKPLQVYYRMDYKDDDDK
# B1: H183/L072 VL T31G (antibody, name in Kabat numbering, V domains shown)
# VH: QVQLVESGGGLVQPGRSLRLSCAASGFTFSNAWMHWVRQAPGKGLEWVAQIKDKGNAYAAYYAPSVKGRFTISRDDSKNSIYLQMNSLKTEDTAVYYCHYVHYASASTVLPAFGVDAWGQGTTVTVSS
# VL: DIVMTQSPLSLPVTPGEPASISCQASQELVHMNRNGYLHWYQQKPGQAPRLLIYKVSNRFPGVPDRFSGSGSGTDFTLKISRVEAEDVGVYYCAQGTSVPFTFGQGTKLEIK
# B2: H183/L072 VL T92Q (antibody, name in Kabat numbering, V domains shown)
# VH: B1 VH
# VL: B1 VL with G36T, T97Q
# B3: H183/L072 VL T31L (antibody, name in Kabat numbering, V domains shown)
# VH: B1 VH
# VL: B1 VL with G36L
# B4: H183/L072 VL T97F (antibody, name in Kabat numbering, V domains shown)
# VH: B1 VH
# VL: B1 VL with G36T, T102F
# B5: H183/L072 VL T92S (antibody, name in Kabat numbering, V domains shown)
# VH: B1 VH
# VL: B1 VL with G36T, T97S
# B6: H183/L072 VL T92K (antibody, name in Kabat numbering, V domains shown)
# VH: B1 VH
# VL: B1 VL with G36T, T97K
# B7: H183/L072 VL T92A (antibody, name in Kabat numbering, V domains shown)
# VH: B1 VH
# VL: B1 VL with G36T, T97A
# B8: H183/L072 VL T97H (antibody, name in Kabat numbering, V domains shown)
# VH: B1 VH
# VL: B1 VL with G36T, T102H
# B9: H183/L072 VL T97A (antibody, name in Kabat numbering, V domains shown)
# VH: B1 VH
# VL: B1 VL with G36T, T102A
# B10: H183/L072 VL T97I (antibody, name in Kabat numbering, V domains shown)
# VH: B1 VH
# VL: B1 VL with G36T, T102I
# B11: H183/L072 VL T31N (antibody, name in Kabat numbering, V domains shown)
# VH: B1 VH
# VL: B1 VL with G36N
# B12: H183/L072 VL T92G (antibody, name in Kabat numbering, V domains shown)
# VH: B1 VH
# VL: B1 VL with G36T, T97G
# B13: H183/L072 VL T92V (antibody, name in Kabat numbering, V domains shown)
# VH: B1 VH
# VL: B1 VL with G36T, T97V
# B14: H183/L072 VL T97G (antibody, name in Kabat numbering, V domains shown)
# VH: B1 VH
# VL: B1 VL with G36T, T102G
# B15: H183/L072 VL T92M (antibody, name in Kabat numbering, V domains shown)
# VH: B1 VH
# VL: B1 VL with G36T, T97M
# B16: H183/L072 VL T92N (antibody, name in Kabat numbering, V domains shown)
# VH: B1 VH
# VL: B1 VL with G36T, T97N
# B17: H183/L072 VL T31Q (antibody, name in Kabat numbering, V domains shown)
# VH: B1 VH
# VL: B1 VL with G36Q
# B18: H183/L072 VL T97D (antibody, name in Kabat numbering, V domains shown)
# VH: B1 VH
# VL: B1 VL with G36T, T102D
# B19: H183/L072 VL T97E (antibody, name in Kabat numbering, V domains shown)
# VH: B1 VH
# VL: B1 VL with G36T, T102E
# B20: H183/L072 VL T31R (antibody, name in Kabat numbering, V domains shown)
# VH: B1 VH
# VL: B1 VL with G36R
# B21: H183/L072 VL T31K (antibody, name in Kabat numbering, V domains shown)
# VH: B1 VH
# VL: B1 VL with G36K
# B22: H183/L072 VL T92F (antibody, name in Kabat numbering, V domains shown)
# VH: B1 VH
# VL: B1 VL with G36T, T97F
# B23: H183/L072 VL T92R (antibody, name in Kabat numbering, V domains shown)
# VH: B1 VH
# VL: B1 VL with G36T, T97R
# B24: H183/L072 VL T31S (antibody, name in Kabat numbering, V domains shown)
# VH: B1 VH
# VL: B1 VL with G36S
# B25: H183/L072 VL T31I (antibody, name in Kabat numbering, V domains shown)
# VH: B1 VH
# VL: B1 VL with G36I
# B26: H183/L072 VL T31H (antibody, name in Kabat numbering, V domains shown)
# VH: B1 VH
# VL: B1 VL with G36H
# B27: H183/L072 VL T92D (antibody, name in Kabat numbering, V domains shown)
# VH: B1 VH
# VL: B1 VL with G36T, T97D
# B28: H183/L072 VL T92E (antibody, name in Kabat numbering, V domains shown)
# VH: B1 VH
# VL: B1 VL with G36T, T97E
# B29: H183/L072 VL T31V (antibody, name in Kabat numbering, V domains shown)
# VH: B1 VH
# VL: B1 VL with G36V
# B30: H183/L072 VL T92H (antibody, name in Kabat numbering, V domains shown)
# VH: B1 VH
# VL: B1 VL with G36T, T97H
# B31: H183/L072 VL T92L (antibody, name in Kabat numbering, V domains shown)
# VH: B1 VH
# VL: B1 VL with G36T, T97L
# Target: T1, Human CD3eg linker
# Experiment: SPR; fold vs parent H183/L072
row,Binder,fold change of affinity [fold]
1,B1,0
2,B2,0
3,B3,0
4,B4,0.3
5,B5,0.5
6,B6,0.8
7,B7,0.1
8,B8,0.5
9,B9,0.8
10,B10,0.5
11,B11,0
12,B12,0.2
13,B13,0.4
14,B14,1
15,B15,0.3
16,B16,0.2

row,Binder,fold change of affinity [fold]
1,B17,0.4
2,B18,0.6
3,B19,0.6
4,B20,0.4
5,B21,0.4
6,B22,0.3
7,B23,0.5
8,B24,0.5
9,B25,0.7
10,B26,0.1
11,B27,0
12,B28,0
13,B29,0.7
14,B30,0.2
15,B31,0.3
